The target in the assay is human Interleukin-1 Receptor Associated Kinase 1 (IRAK1) protein, nanoluciferase BiMC construct (human) (UniProt P51617). As to the kind of experiment: split reporter.
UniProt P51617, sequence (P51617 whole entry): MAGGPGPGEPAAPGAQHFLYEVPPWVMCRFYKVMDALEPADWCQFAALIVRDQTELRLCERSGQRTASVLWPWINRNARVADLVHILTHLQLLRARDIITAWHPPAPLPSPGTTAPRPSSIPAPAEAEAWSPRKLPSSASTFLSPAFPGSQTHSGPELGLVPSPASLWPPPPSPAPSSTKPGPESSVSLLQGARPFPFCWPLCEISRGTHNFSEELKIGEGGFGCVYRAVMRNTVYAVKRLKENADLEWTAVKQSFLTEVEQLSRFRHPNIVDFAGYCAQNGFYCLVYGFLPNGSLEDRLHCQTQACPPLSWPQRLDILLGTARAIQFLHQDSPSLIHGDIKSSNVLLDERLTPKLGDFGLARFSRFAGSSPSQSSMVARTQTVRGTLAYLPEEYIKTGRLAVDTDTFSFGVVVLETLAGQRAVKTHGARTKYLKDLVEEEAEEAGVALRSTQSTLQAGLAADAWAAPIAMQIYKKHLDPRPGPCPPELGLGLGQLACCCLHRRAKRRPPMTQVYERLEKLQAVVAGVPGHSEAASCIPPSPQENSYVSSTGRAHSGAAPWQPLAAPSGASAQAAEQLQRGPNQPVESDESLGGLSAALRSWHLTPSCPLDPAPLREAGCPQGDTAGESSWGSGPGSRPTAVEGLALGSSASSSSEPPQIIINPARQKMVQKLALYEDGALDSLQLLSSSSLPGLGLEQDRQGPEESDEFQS

“SINV CP truncation mutant ΔRI (RII and Protease domains) (domain or fragment)” showed a fold BiMC of nanoluciferase relative to the full-length SINV CP protein of 2 fold.

The values are drawn from publication PMC10773654.
